Test results from PMC6384864, “Identification of a Novel Specific Cucurbitadienol Synthase Allele in Siraitia grosvenorii Correlates with High Catalytic Efficiency” (Molecules, 2019).

Legend:
[1] = system: T1, CC(C)=CCC/C(C)=C/CC/C(C)=C/CC/C=C(\C)CC/C=C(\C)CC[C@@H]1OC1(C)C; assay: GC-MS of reaction product, yeast homogenate (Methods; Results text says purified variants); assay type: biochemical, Siraitia grosvenorii; settings: 30 °C, pH 7.0, 100 mM sodium phosphate, 0.1% Triton X-100, natural allele 50C573L
T1 construct: full length, 759 residues; yeast codon-optimised in pCEV-G4-Km, S. cerevisiae BY4742, no tag told

[2] = system: T1, CC(C)=CCC/C(C)=C/CC/C(C)=C/CC/C=C(\C)CC/C=C(\C)CC[C@@H]1OC1(C)C; assay: as above; assay type: biochemical, Siraitia grosvenorii; settings: 30 °C, pH 7.0, 100 mM sodium phosphate, 0.1% Triton X-100, allele 50R573L
Source text: GC-MS of reaction product, yeast homogenate (Methods; Results text says purified variants) on SgCS (cucurbitadienol synthase, wild type 50R573L)

Chain of SgCS (cucurbitadienol synthase, wild type 50R573L) (Siraitia grosvenorii) (chain, as listed by the source): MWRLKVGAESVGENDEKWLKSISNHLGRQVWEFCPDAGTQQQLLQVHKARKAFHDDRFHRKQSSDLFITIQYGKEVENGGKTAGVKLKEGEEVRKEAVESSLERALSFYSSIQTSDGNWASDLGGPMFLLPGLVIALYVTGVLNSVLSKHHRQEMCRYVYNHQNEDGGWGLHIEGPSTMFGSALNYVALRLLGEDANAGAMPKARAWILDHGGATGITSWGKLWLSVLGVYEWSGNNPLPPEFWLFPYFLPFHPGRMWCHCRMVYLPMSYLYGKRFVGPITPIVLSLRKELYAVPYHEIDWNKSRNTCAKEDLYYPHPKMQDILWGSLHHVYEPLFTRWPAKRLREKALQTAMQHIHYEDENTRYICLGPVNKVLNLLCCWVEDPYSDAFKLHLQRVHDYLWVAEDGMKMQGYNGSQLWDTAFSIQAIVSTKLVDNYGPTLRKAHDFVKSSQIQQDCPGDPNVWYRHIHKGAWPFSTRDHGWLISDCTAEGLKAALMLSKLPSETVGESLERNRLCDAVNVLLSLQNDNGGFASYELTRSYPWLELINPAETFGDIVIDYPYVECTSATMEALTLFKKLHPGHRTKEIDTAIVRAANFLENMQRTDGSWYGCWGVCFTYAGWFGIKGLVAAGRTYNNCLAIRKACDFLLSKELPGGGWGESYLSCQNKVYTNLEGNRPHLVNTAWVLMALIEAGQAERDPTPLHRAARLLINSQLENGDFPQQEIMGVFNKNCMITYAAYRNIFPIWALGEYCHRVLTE
Chain of SgCS (cucurbitadienol synthase, wild type 50R573L) (Siraitia grosvenorii; R50C) (chain, as listed by the source R50C): as the sequence (chain, as listed by the source) above, with R50C counted along it

Substance	Km [1]	kcat [1]	kcat/Km [1]	Km [2]	kcat [2]	kcat/Km [2]
SgCS (cucurbitadienol synthase, wild type 50R573L) (Siraitia grosvenorii; R50C)	0.32 µM	0.0128 s⁻¹	40200 M⁻¹ s⁻¹			
SgCS (cucurbitadienol synthase, wild type 50R573L) (Siraitia grosvenorii)				0.29 µM	0.0147 s⁻¹	49700 M⁻¹ s⁻¹
